What was measured:
[1] = molecular target: T1, adrenomedullin (synthetic human AM)
T1 chain: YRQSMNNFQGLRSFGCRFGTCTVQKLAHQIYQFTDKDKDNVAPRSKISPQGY

[2] = molecular target: T2, human complement factor H, P08603
T2 chain: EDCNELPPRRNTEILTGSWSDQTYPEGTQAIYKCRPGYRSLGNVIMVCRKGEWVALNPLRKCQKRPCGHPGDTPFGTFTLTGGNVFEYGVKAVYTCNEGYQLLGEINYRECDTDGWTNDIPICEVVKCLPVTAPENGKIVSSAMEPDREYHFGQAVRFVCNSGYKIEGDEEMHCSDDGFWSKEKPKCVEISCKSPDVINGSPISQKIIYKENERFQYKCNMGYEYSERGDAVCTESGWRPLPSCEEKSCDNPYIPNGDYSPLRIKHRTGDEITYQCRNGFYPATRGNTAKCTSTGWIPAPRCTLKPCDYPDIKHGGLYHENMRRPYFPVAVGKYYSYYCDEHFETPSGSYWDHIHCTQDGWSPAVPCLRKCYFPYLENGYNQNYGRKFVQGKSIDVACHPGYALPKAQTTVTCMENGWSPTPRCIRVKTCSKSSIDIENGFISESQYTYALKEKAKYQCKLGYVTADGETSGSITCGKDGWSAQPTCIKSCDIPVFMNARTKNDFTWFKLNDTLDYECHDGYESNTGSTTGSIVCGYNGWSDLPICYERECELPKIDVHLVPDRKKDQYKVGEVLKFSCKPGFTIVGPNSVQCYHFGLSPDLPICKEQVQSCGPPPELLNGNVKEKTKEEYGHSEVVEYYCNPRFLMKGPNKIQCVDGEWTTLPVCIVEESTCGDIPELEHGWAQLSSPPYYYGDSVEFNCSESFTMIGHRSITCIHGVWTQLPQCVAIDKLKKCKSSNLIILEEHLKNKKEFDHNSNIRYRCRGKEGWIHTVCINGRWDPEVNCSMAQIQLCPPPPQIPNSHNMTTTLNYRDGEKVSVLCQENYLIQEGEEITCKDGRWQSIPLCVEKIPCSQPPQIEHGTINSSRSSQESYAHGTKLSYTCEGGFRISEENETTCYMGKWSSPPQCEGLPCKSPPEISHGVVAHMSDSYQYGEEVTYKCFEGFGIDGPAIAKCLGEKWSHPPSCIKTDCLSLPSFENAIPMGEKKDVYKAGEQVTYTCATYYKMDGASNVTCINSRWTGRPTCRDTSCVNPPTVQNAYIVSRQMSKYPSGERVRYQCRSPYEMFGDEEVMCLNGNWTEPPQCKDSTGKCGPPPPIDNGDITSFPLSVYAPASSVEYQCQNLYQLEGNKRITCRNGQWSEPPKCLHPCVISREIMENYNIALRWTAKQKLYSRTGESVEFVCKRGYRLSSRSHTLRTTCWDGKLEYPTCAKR

B1: human recombinant MMP-2 (protein)
chain: YNFFPRKPKWDKNQITYRIIGYTPDLDPETVDDAFARAFQVWSDVTPLRFSRIHDGEADIMINFGRWEHGDGYPFDGKDGLLAHAFAPGTGVGGDSHFDDDELWTLGEGQVVRVKYGNADGEYCKFPFLFNGKEYNSCTDTGRSDGFLWCSTTYNFEKDGKYGFCPHEALFTMGGNAEGQPCKFPFRFQGTSYDSCTTEGRTDGYRWCGTTEDYDRDKKYGFCPETAMSTVGGNSEGAPCVFPFTFLGNKYESCTSAGRSDGKMWCATTANYDDDRKWGFCPDQGYSLFLVAAHEFGHAMGLEHSQDPGALMAPIYTYTKNFRLSQDDIKGIQELYGASPDIDLGTGPTPTLGPVTPEICKQDIVFDGIAQIRGEIFFFKDRFIWRTVTPRDKPMGPLLVATFWPELPEKIDAVYEAPQEEKAVFFAGNEYWIYSASTLERGYPKPLTSLGLPPDVQRVDAAFNWSKNKKTYIFAGDKFWRYNEVKKKMDPGFPKLIADAWNAIPDNLDAVVDLQGGGHSYFFKGAYYLKLENQSLKSVKFGSIKSDWLGC
With B1 the “AM fragments generated by MMP-2 digestion (mass spectrometry of HPLC peaks)” value [1] was “These include AM(8-52), AM(11-52), AM(23-52), AM(29-52), AM(11-28), and AM(11-22)”, the “degradation of synthetic AM (gel, HPLC, mass spectrometry)” value [1] was “MMP-2 rapidly cleaves synthetic AM in a time-dependent manner” and the “degradation of factor H (gel)” value [2] was “is not a substrate for either one of the MMPs”.

From patent publication US20050261179
